“Also recorded” adds a separate entry of the source.
Experiments:
ERK1/2 = ERK1/2 activation in Swiss 3T3 cells by bovine polypeptides; type: cell-based; settings: cell supernatants containing bovine polypeptide, listed as CAMP
Description: Swiss 3T3 cells were treated with cell supematants containing bovine TCN 1 polypeptide. […] An increase in relative fluorescence units over the control indicates ERK activation.
Aliquots of the CRC-IDP samples were used to activate HSC-2 cells in a 96 well plate. Confluent and serum-starved cells were presented with the samples at a final dilution of 1:2. Cells were also stimulated with an internal control for activation of cells (Stim=10% serum) or left unstimulated (unstim). After 10 minutes with the CRC-IDP samples or control stimulus, cells were lysed and assayed for ERK activation using TGR's proprietary assay technology (SureFire). FIG. 12 presents the results as the mean+/−SEm of 3 separate samples. The data is from a single experiment.

HC11 cells = test: Cell growth with cathelicidins in HC11 cells; type: cell-based, mouse; set-up: cell growth Rep. 1 / cell growth Rep. 2 / cell growth Rep. 3 / cell growth Rep. 4 / cell growth Mean: unit not given here; settings: 72 hours
Description: FIG. 2. Cellular growth assay with HC11 cells. Mouse mammary epithelial cells, HC11 cells, were grown in media conditioned with: mock transfection (control), LAM32, LAM32a or LAM32b for 72 hours. Samples were performed in triplicate and the cells from each triplicate counted in triplicate. […] LAM 32 is represented as set forth in SEQ ID NO: 188, and two splice variants thereof, designated LAM32a and 32b as set forth in SEQ ID NO: 215 and 207 respectively.
As shown in FIG. 2 equal numbers of mouse mammary HC11 cells were grown in the presence of either a negative control or tammar wallaby cathelicidin-associated polypeptide, namely LAM 32 (SEQ ID NO: 188), LAM 32a (SEQ ID NO: 215) or LAM 32b (SEQ ID NO: 207) in order to determine the effect of these LAMs on cellular growth.
(§1) HC11 cells were initially plated at 50 percent confluency and cultured for 72 hours in a 1:10 dilution of serum and antibiotic free Optimem and media conditioned with cathelicidin associated polypeptides. The medium was removed and then washed gently for 2 minutes with Mg^2+- and Ca^2+-free phosphate buffered saline (PBS), 0.05% Trypsin and 1:5000 Versene to disrupt cell aggregates. Cells were collected by scraping and washed twice by resuspension in complete medium followed by centrifugation. The cells were again resuspended and counted in triplicate using a Luber haemocytometer.
(§2) The cells were counted in triplicate using a Luber haemocytometer. The negative control was media alone (i.e. conditioned media […] insertless vector). The samples were deemed statistically significant using a t-test comparing the control with the sample if the values of cell growth were 2 standard deviations higher than the mean of the negative control.

mouse ES cells = test: Cell growth with cathelicidins in mouse ES cells; type: cell-based; set-up: cell growth Rep. 1 / cell growth Rep. 2 / cell growth Rep. 3 / cell growth Mean: unit not given here; settings: 24 hours
Description: as §1, with “Mouse ES” for “HC11”, “were” for “were initially”, “24” for “72”, “saline” for “saline (PBS),”
as §2

[1] = tested on: bovine mammary epithelial cells; test: Cellular morphology assay, bovine mammary epithelial cells; type: cell-based; settings: 1:5 dilution of secreted polypeptide, 48 hours (FIG. 6)
Description: FIG. 6. Cellular morphology assay. To determine the ability of LAMs to influence cellular morphology, bovine mammary epithelial cells were plated onto a extracellular matrix and the cells were subsequently allowed to migrate to form mammospheres in the presence or absence of each LAM. The figure contains Panel A (Negative control) and Panels B to G (Presence of a LAM for which one LAM polypeptide is represented in one panel).
Candidate LAM polypeptides that are able to regulate the function and differentiation of the mammary gland were screened by culturing bovine mammary epithelium in the presence of a 1:5 dilution of the secreted polypeptide LAMs for 48 hours as described for the TGR assays in Example 4. Cells were examined microscopically for gross morphological changes and for their ability to induce cell differentiation.

chicks = test: Chick growth assay (in ovo injection, weight at hatching); type: in vivo
Description: FIG. 5. Chick growth assay by measuring weight. 10 LAMs (being bovine homologues having homology to specific Tammar ESTs), 3 known bovine cathelicidins, and four bovine cathelicidin variants were tested. Conditioned media containing a LAM polypeptides or bovine cathelicidins or variants thereof was diluted in a total of 1 ml of normal saline. Eggs on day 16 of incubation were injected with 1 ml of the media containing the into the broad end of the egg. Chicks were weighed on day of hatching. The overall condition of the chick was assessed including the possible presence of stumpy legs and/or loss of down feathers.
Conditioned media containing LAM polypeptides or bovine cathelicidins or variants thereof were diluted in a total of 1 ml of normal saline. Eggs on day 16 of incubation were injected in ovo with 1 ml of LAM polypeptides or bovine cathelicidins or variants thereof into the broad end of the egg. Chicks were weighed on day of hatching. Controls included saline only, or saline and 10 mg/ml of a peptide as a random peptide control.
As set out in Table 23, the left column indicates the polypeptide used in the assay while the right column contains chick weight in grams as a measurement of chick growth. Bolded numbers represent a chick(s) larger than the controls and more than 2 standard deviations from the mean. In addition, bolded numbers represent chicks that have been killed. The mean represents the weight of all the chicks tested within this experiment.

p38 MAPK = p38 MAPK assay of inflammatory activity in RAW macrophage cells; type: cell-based
Description: Plasmids containing Tammar wallaby LAMs were directionally cloned into the expression vector pCMV Sport 6.0, and then transfected into the human kidney cell line HK293. A total of 1 μg of LAM-containing plasmid DNA and 10 ng of pEGFP-C1 plasmid was introduced into 70% confluent HK293 cells in 2 cm^2 wells containing 500 ul of opti-MEM-1 media. Transfection success was assessed by observing green fluorescence of cells by fluorescent microscopy. After 48 hours conditioned media containing the secreted polypeptide was collected and frozen at −20° C. The media containing the secreted polypeptides was then used directly in a variety of bioactivity assays. For the assays described below, samples of secreted polypeptides were aliquoted into individual wells of 96 or 384 well plates and stored, prior to assaying, either frozen or lyophilized.
A negative control created by transfection with an insertless vector was used in all assays. For the assays described in Examples 4A, 4B, 4C and 4D results for samples were in the form of relative fluorescence units (RFU) as described herein. […] In some cases, RFU less than two standard deviations from the mean were considered significant if the LAM sample in question produced a positive result in another assay. […]
Activation of p38 MAPK was assessed in RAW macrophage cells. […]

trefoil 1 = test: Induction of trefoil proteins in AGS cells (peroxidase immunodetection); type: cell-based, human
Description: FIGS. 11A and B: Peroxidase assay for trefoil activity. Supematants of HEK293 cells expressing tammar mammary clones were applied to the human gastric epithelial cell line, AGS, for 48 hours. The resultant AGS cell conditioned media containing stimulated AGS cell secreted proteins, and the AGS cells, were lysed. Samples of the AGS cell secreted proteins and cell lysates, and a recombinant positive control were transferred to a solid support and probed using a rabbit anti-trefoil 1 antibody and a secondary goat anti-rabbit antibody conjugated to horse radish peroxidase was used to detect the trefoil 1. A: Detection of secreted trefoil 1 in supematants from stimulated AGS cells. B: Detection of expression of trefoil 1 in stimulated AGS cell lysate samples.
In addition, supernatants of HEK293 cells expressing tammar mammary clones were applied to the human gastric epithelial cell line, AGS, for 48 hours. The resultant AGS cell conditioned media containing stimulated AGS cell secreted proteins (i.e. supernatant) were collected and the AGS cells were lysed. […]

[2] = tested on: mouse embryonic stem (ES) cells; test: Cellular differentiation assay, mouse ES cells with Oct4-βgal transgene; type: cell-based; settings: tammar wallaby polypeptides, LIF 1000 U/ml, 1:5 dilution, 48 hours (FIG. 7)
Description: FIG. 7. Cellular differentiation assay. To determine the ability of LAMs to influence cell differentiation, mouse embryonic stem (ES) cells were cultured in the presence of leukemia inhibitory factor (LIF) 1000 U/ml and the LAM in question a 1 in 5 dilution of the secreted polypeptides and cultured for 48 hours. […] This figure contains Panel A (Negative control) and Panels B to L (Presence of a LAM for which one LAM polypeptide is represented in one panel).
To determine the ability of LAMs to influence cellular differentiation, mouse embryonic stem (ES) cells were cultured in the presence of a leukemia inhibitory factor (LIF) 1000 U/ml and a 1:5 dilution of the secreted polypeptide LAMs for 48 hours.

| Molecule | ERK1/2 activation (ERK1/2) | cell growth Rep. 1 (HC11 cells; 1:10 dilution conditioned media, -ve control 0.727) | cell growth Rep. 2 (HC11 cells; -ve control 0.76) | cell growth Rep. 3 (HC11 cells; -ve control 0.786) | cell growth Rep. 4 (HC11 cells; -ve control 0.808) | cell growth Mean (HC11 cells; -ve control mean 0.77025) | cell growth versus control (significance) (HC11 cells; P<0.05 t-test) | cell growth Rep. 1 (mouse ES cells; 1:10 dilution conditioned media, -ve control 0.34) | cell growth Rep. 3 (mouse ES cells; -ve control 0.352) | cell growth Rep. 2 (mouse ES cells; -ve control 0.474) | cell growth Mean (mouse ES cells; -ve control mean 0.388666667) | influence on cellular morphology [1] | chick size versus controls (chicks; body weight relative to mean/median of all chicks tested) | Chick weight (chicks; bovine polypeptides in conditioned media, 1 ml in ovo on day 16 of incubation, weighed on day of hatching, Saline 51.0) [grams] | RFU (p38 activation, pro-inflammatory activity) (p38 MAPK; 30 minutes, Mean RFU 12253, SD RFU 7395, negative control 11004 RFU) [RFU] | pro-inflammatory activity (RFU significantly above the mean) (p38 MAPK; text summary of Tables 12 and 13) | Trefoil-inducing activity: Function (trefoil 1; 48 hours, trefoil 1 in supernatant (secretion) and cell lysate (expression)) | trefoil 1 expression and/or secretion (trefoil 1; Table 16) | cellular differentiation [2] |
| --- | --- | --- | --- | --- | --- | --- | --- | --- | --- | --- | --- | --- | --- | --- | --- | --- | --- | --- | --- |
| LAM 32: Cathelicidin antimicrobial peptide; tammar wallaby polypeptide SEQ ID NO 188, bovine SEQ ID NO 220 (protein) QALSYREAVLRAVDQLNEQSSEPNIYRLLELDQPPQDDEDPDSPKRVSFRVKETVCSRTTQQPPEQCDFKENGLLKRCEGTVTLDQVRGNFDITCNNHQSIRITKQPWAPPQAARLCRIVVIRVCR | activates ERK1/2; also recorded: ERK1/2 activation | 0.985 | 0.927 | 0.968 | 1.026 | 0.9765 | significantly more cells | 0.721 | 0.784 | 0.548 | 0.6843 | induced a significant change in quaternary structure and/or cellular morphology |  |  |  |  |  |  |  |
| LAM 19: EBP: Emopamil binding protein (sterol isomerase); tammar polypeptide SEQ ID NO 49, bovine SEQ ID NO 109 (protein, X: residue not identified in the source; ends and bridges not checked) MTTNTSPMHPYWPRHLRLDNFVPNDYPTWHILAGLFSVSGVLVVATWLLSGRAAVVPLGTWRRLSLCWFAVCGFIHLVIEGWFSLYHADLLGDQAILSQLWKEYAKGDSRYILNDNFMICMETVTAYLWGPLSLWVVIAFLRHQPLRFVLQLVVSMGQVYGDVLYFLTEYRDGFQHGELGHPLYFWFYFVFLNSLWLVVPGLLILDSIKQLAHAQSILDAKAPKAKSKQXLKSDELGLNTGYEELSTYQKIPILAPTGRKDKLN |  |  |  |  |  |  |  |  |  |  |  |  | falls just outside 2 standard deviations from the median of chick weights | 57.1 | 66112 | pro-inflammatory activity | enhanced expression and secretion | enhance trefoil 1 expression in AGS cells as well as enhance the secretion of trefoil 1 | induced cellular differentiation |
